These results are taken from patent publication US20020147306A1 (published 2002).

No end group written: not given here.

The labels stand for the following.
T1: ephrin B1 Val deletion (UniProt P98172 28-346, limits assumed)
T1 construct: whole, on cells; Tested from lysates of transfected Cos-1 cells; also called ephrin B1 Val deletion mutant; ephrin B1 lacking the C-terminal Val
T1 sequence (looked up): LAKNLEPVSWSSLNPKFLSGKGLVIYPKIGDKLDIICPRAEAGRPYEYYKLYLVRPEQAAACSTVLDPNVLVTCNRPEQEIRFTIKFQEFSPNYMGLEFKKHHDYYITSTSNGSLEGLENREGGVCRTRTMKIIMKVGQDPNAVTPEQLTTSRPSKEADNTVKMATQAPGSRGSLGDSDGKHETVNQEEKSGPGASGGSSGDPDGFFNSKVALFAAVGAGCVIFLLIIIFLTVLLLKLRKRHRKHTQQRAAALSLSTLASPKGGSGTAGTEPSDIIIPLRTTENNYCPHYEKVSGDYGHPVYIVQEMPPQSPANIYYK

B1: fluorescein-labelled NIYYKV peptide (peptide)
peptide: NIYYKV
modifications: also: 5-(and-6-)carboxyfluorescein label, site not given here
notes: 25 nM probe in fluorescence polarization; also called unphosphorylated peptide probe
B2: GST-syntenin fusion protein (full length: residues 1-299) (other, mouse, UniProt O08992 1-299, looked up)
chain: MSLYPSLEDLKVDKVIQAQTAYSANPASQAFVLVDASAALPPDGNLYPKLYPELSQYMGLSLNEAEICESMPMVSGAPAQGQLVARPSSVNYMVAPVTGNDAGIRRAEIKQGIREVILCKDQDGKIGLRLKSIDNGIFVQLVQANSPASLVGLRFGDQVLQINGENCAGWSSDKAHKVLKQAFGEKITMTIRDRPFERTVTMHKDSSGHVGFIFKSGKITSIVKDSSAARNGLLTDHHICEINGQNVIGLKDAQIADILSTAGTVVTITIMPTFIFEHIIKRMAPSIMKSLMDHTIPEV
notes: range 1-299; also called full-length syntenin; GST fusion of full-length syntenin; not shown: glutathione S-transferase (GST) from vector pGEX4T2
B3: syntenin-FLAG (other, mouse, UniProt O08992 1-299, looked up, not shown: small tags and cut ends)
chain: B2 chain
notes: range 1-299; Co-expressed with ephrin B1 in Cos-1 cells

The target of assay [1] is B2. The assay is described as follows: fluorescence polarization, 25 nM fluorescein-labelled peptide, GST fusion titrated, 22 C. The protocol:
(§1) FIGS. 5A and 5B. Fluorescence polarization analysis of GST-FAP-1 PDZ3, GST-FAP-1 PDZ5 and GST-syntenin binding to Fluorescein-labelled peptides corresponding to the C-terminus of ephrin B1. FIG. 5 A, Solutions containing the indicated final concentration of GST-FAP-1 PDZ3 ( ) or GST-FAP-1 PDZ5 ( ) fusion protein in mixtures containing 25 nM fluorescein-labelled NIYYKV peptide probe, 20 mM phosphate pH 7.0, 100 mM NaCl, and 2 mM dithiothreitol (DTT) were monitored for fluorescence polarization at 22° C. The GST-FAP-1 PDZ5 fusion protein was also measured for binding to the phosphorylated peptides, NIpYYKV ( ), NiYpYKV ( ) and NIpYpYKV ( ). […] FIG. 5B, A Binding of a GST fusion of full-length syntenin to the NIYYKV ( ), NIpYYKV ( ), and NIpYpYKV ( ) peptides as measured by fluorescence polarization.
(§2) Binding constant determination and peptide competition studies were carried out using fluorescence polarization on a Beacon 2000 Fluorescence Polarization System (Pan Vera, Wis.) equipped with a 100-μl sample chamber. Fluorescein-labeled probes were prepared through reaction of B ephrin C-terminal peptides with 5-(and-6-)-carboxyfluorescein, succinimidyl ester (Molecular Probes, Oreg.) and purified by reverse-phase HPLC. The authenticity of the fluorescein-labelled peptides were confirmed by mass spectroscopy. In the binding studies, the fluorescein-labelled peptide probe was dissolved in 20 mM phosphate pH 7.0, 100 mM NaCl, and 2 mM DTT to a concentration of 25 nM and a known quantity of GST- fusion protein added. The reaction mixtures were allowed to stand for 10 min at room temperature prior to each measurement. All fluorescence polarization measurements were conducted at 22° C.
(§3) Fluorescence polarization experiments measuring GST-syntenin fusion protein binding to fluorescein-labeled NIYYKV (SEQ. ID. NO. 10) and NIpYYKV (SEQ. ID. NO. 8) peptides yielded nearly identical binding curves (FIG. 5B).
For orientation: Fluorescence polarisation rises when a labelled molecule tumbles more slowly, as on binding a larger partner.

The target of assay [2] is T1, ephrin B1 Val deletion. Briefly: GST mix with lysates of transfected Cos-1 cells, anti-ephrin B1 immunoblot. The method, then: FIGS. 3A-C. FAP-1 PDZ5 and syntenin bind specifically to ephrin B1 in GST-mixes. Cos-1 cells were transiently transfected with either wild-type ephrin B1 (W. T.) or the ephrin B1 Val deletion (Val Δ) or were untransfected. Cell lysates were incubated with the GST fusion proteins as indicated and analyzed by immunoblotting with anti-ephrin B1 antibody. Immunoprecipitated ephrin B1 or ephrin B1 Val Δ were included as a positive control. FIG. 3A and FIG. 3B, GST-mixes with fusion proteins of FAP-1. C and D, GST-mixes with fusion proteins of syntenin.
(§4) Cos-1 cells were maintained in DMEM supplemented with 10% fetal bovine serum (FBS). Transient transfections were performed using Lipofectin reagent and Opti-MEM medium (Life Technologies Inc.) as outlined by the manufacturer. To reduce phosphorylation of ephrin B1 by binding to endogenously expressed EphB receptors or by stimulation with serum growth factors, transfected cells were transferred from 10 cm to 15 cm plates 24 h after transfection and serum starved in DMEM 0.5% FBS 12 h prior to cell lysis. Transfected cells were rinsed once in PBSA and lysed in PLC lysis buffer (5) with 10 μg/ml aprotonin, 10 μg/ml leupeptin, 1 mM sodium vanadate and 1 mM phenylmethylsulfonyl fluoride added. Immunoprecipitations were performed for 1 h at 4° C. using 1 μg anti-ephrin B1 antibody or 1 μg anti-IL-3 receptor a antibody with protein A-sepharose. […]

Assay [3] addresses fluorescein-labelled NIpYYKV peptide. The assay is described as follows: fluorescence polarization, 25 nM fluorescein-labelled peptide, GST fusion titrated, 22 C. The method, then:
as §1, §2, §3

In assay [4] the target is fluorescein-labelled NIpYpYKV peptide. The assay is described as above. The protocol:
as §1, §2, §3

In assay [5] the target is T1, ephrin B1 Val deletion. Briefly: co-immunoprecipitation from co-transfected Cos-1 cells, anti-FLAG blot. The method, then:
(§5) FIG. 6. Co-immunoprecipitation of syntenin-FLAG with ephrin B1. Cos-1 cells were co-transfected with either ephrin B1 and syntenin-FLAG or with the ephrin B1 Val deletion and syntenin-FLAG as indicated. Cell lysates were immunoprecipitated with antibodies against ephrin B1 or IL-3 receptor a or were treated with protein A sepharose only. Immunocomplexes were subjected to SDS-PAGE (10%) and blotted with anti-FLAG antibodies.
as §4

For another assay, the target named is T2, protein A sepharose (UniProt P38507 37-477).
T2 construct: Bead-only control in the co-immunoprecipitation; also called protein A sepharose alone
Briefly: precipitation from Cos-1 cells co-transfected with ephrin B1 and syntenin-FLAG, anti-FLAG blot. The protocol: as §5, §4

For B1, the affinity in assay [1], expressed as Kd, was 17.7 µM. That is a double-digit micromolar value.

With B2, in the assay with ephrin B1 Val deletion [2], the binding result is reported as “no binding”. In addition, the Kd – broadly, the free concentration of one partner at which half of the binding sites on the other are occupied at equilibrium, for simple one-to-one binding – in assay [3] came to 15.4 µM; in assay [4], 151 µM.

Regarding B3, the binding result in the assay with ephrin B1 Val deletion [5] and with protein A sepharose was “no binding” throughout.
